Data published in patent US20200317791A1 (Janssen / Centocor, published 2020).
Numbering of substitutions follows the chain as printed. Read-outs that look alike come from different tables or passages of the source.

Key:
[1] = target: T1, HLA-Cw6/TRAT on K562-rhHLA-Cw6 cells loaded with TRAT peptide (human, UniProt P10321 25-366); assay: cell-based or functional assay
T1 MHC heavy: […]
T1 peptide: TRATKMQVI

A24_A*24:02 [2] = target: T2, A24_A*24:02 (human, UniProt A*24:02); assay: LABScreen beads
T2 construct: on LABScreen bead; also called HLA-A*24:02 (LABScreen class I bead)
T2 heavy chain: not shown

A24_A*24:02 [3] = target: T2, A24_A*24:02; assay: LABScreen beads
A24_A*24:02 [4] = target: T2, A24_A*24:02; assay: LABScreen beads
[5] = target: T3, CW6W3.ECO.PP.002/.003 (rhHLA-Cw6/ARF) (human); assay: SPR ProteOn XPR36, captured mAb; valid kinetic fit, range of two replicates
T3 construct: also called rhHLA-Cw6/ARFN; rHLA-Cw6/ARFN
Method: (§1) Anti-HLA-Cw6 mAbs were captured at ligand densities ranging from 100 to 200 response units. […] All analyses were conducted in PBST at 100 μL/min flow rate with association and dissociation times of 180 and 900 seconds, respectively. […] Analyte raw data was double referenced by subtraction of the blank surface response at “interspots” (to correct for refractive index changes and any non-specific interactions with the chip surface) and of the buffer blank response (to correct for any baseline drift resulting from mAb dissociation over time). Referenced data were globally fit to a 1:1 simple Langmuir binding model. Kinetic parameters were calculated for each mAb/antigen combination or interaction using Bio-Rad ProteOn Manager software (version 3.1.0.6) with parameter (kon, koff, Rmax) scope and type set to “Grouped” and “Fitted,” respectively.

CW6W32 (rhHLA-Cw6/TRAT) [6] = target: T4, CW6W32 (rhHLA-Cw6/TRAT) (human); assay: SPR Biacore 8K, captured mAb; Kinetic fit not valid
T4 construct: also called CW6W32.009; rHLA-Cw6/TRAT

[7] = target: T5, CW6W36 (rhHLA-Cw6/ADAMTSL5) (human); assay: SPR Biacore 8K, captured mAb; Acceptable fit
T5 construct: also called CW6W36.002; rHLA-Cw6/ADAMTSL5
From the text: (§2) To further characterize the ability of the antibodies to differentiate between class I MHC molecules.

CW6W54.001 [8] = assay: SPR Biacore 8K, captured mAb; Acceptable fit
From the text: as §2

CW6W51.001 [9] = assay: SPR Biacore 8K, captured mAb; Acceptable fit
From the text: as §2

CW6W35.001 [10] = assay: SPR Biacore 8K, captured mAb; Acceptable fit
From the text: as §2

CW6W53.001 [11] = assay: SPR Biacore 8K, captured mAb; Acceptable fit
From the text: as §2

[12] = target: T3, CW6W3.ECO.PP.002/.003 (rhHLA-Cw6/ARF); assay: SPR ProteOn XPR36, captured mAb; valid kinetic fit, range of two replicates (upper end)
Method: as §1

CW6W32 (rhHLA-Cw6/TRAT) [13] = target: T4, CW6W32 (rhHLA-Cw6/TRAT); assay: SPR ProteOn XPR36, captured mAb; valid kinetic fit;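 on Kd: Anti-HLA-Cw6 mAbs captured at 100–200 RU, antigen flowed in PBST, 180 s association and 900 s dissociation, double-referenced sensorgrams globally fit to a 1:1 Langmuir model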;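 on koff: Anti-HLA-Cw6 mAbs captured at 100–200 RU, antigen flowed in PBST, 180 s association and 900 s dissociation, double-referenced sensorgrams globally fit to a 1:1 Langmuir model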
Method: as §1

[14] = target: T3, CW6W3.ECO.PP.002/.003 (rhHLA-Cw6/ARF); assay: SPR ProteOn XPR36, captured mAb
Method: as §1

[15] = target: T5, CW6W36 (rhHLA-Cw6/ADAMTSL5); assay: SPR ProteOn XPR36, captured mAb; valid kinetic fit, range of two replicates
Method: as §1
A24_A*24:02 [16] = target: T2, A24_A*24:02; assay: LABScreen beads
CW6W54.001 [17] = assay: SPR Biacore 8K, captured mAb; Kinetic fit not valid
CW6W51.001 [18] = assay: as above
CW6W35.001 [19] = assay: as above
CW6W53.001 [20] = assay: as above
[21] = target: T5, CW6W36 (rhHLA-Cw6/ADAMTSL5); assay: SPR ProteOn XPR36, captured mAb; valid kinetic fit, range of two replicates (second end)
Method: as §1

[22] = target: T3, CW6W3.ECO.PP.002/.003 (rhHLA-Cw6/ARF); assay: SPR ProteOn XPR36, captured mAb; valid kinetic fit;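 on Kd: Anti-HLA-Cw6 mAbs captured at 100–200 RU, antigen flowed in PBST, 180 s association and 900 s dissociation, double-referenced sensorgrams globally fit to a 1:1 Langmuir model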;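 on koff: Anti-HLA-Cw6 mAbs captured at 100–200 RU, antigen flowed in PBST, 180 s association and 900 s dissociation, double-referenced sensorgrams globally fit to a 1:1 Langmuir model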
Method: as §1

[23] = target: T5, CW6W36 (rhHLA-Cw6/ADAMTSL5); assay: SPR ProteOn XPR36, captured mAb
Method: as §1

CW6W32 (rhHLA-Cw6/TRAT) [24] = target: T4, CW6W32 (rhHLA-Cw6/TRAT); assay: SPR ProteOn XPR36, captured mAb
Method: as §1
A24_A*24:02 [25] = target: T2, A24_A*24:02; assay: LABScreen beads
Method: The LAB Screen (One Lambda) assay investigates antibody binding to a panel of 97 Class I HLA alleles (HLA-A, -B, and -C) using a bead-based fluorescent flow technology (Luminex 100; Luminex; Austin, Tex.). In a 96-well assay plate, 5 μl of the LAB Screen (One Lambda #LS1A04) beads were incubated with 20 μl of each test antibody (10 μg/ml) for 30 minutes in the dark at RT with gentle shaking. After the incubation was complete, 150 μl of the supplied 1X wash buffer was added to each well, and the plate was centrifuged at 1300×g for 5 minutes at RT. The wash solution was removed by flicking, and the plates were washed one more time. A 1× PE-conjugated anti-human IgG (One Lambda #LSAB-2) solution was prepared and 100 μl/well added to the assay plate. The plate was incubated for 30 minutes in the dark at RT with gentle shaking. The beads were then washed twice as described above, and then 80 μl/well of 1× PBS was added to each well. The plate was analyzed on a Luminex 100 instrument, and the data was analyzed using the Fusion 3.0 Software (One Lambda).
Purified antibodies were analyzed for allelic specificity by the LAB SCREEN® assay, which evaluates qualitative antibody binding to 97 Class I HLA alleles (HLA-A, -B and -C) using bead-based fluorescent flow technology (Luminex 100).

B1: CW6B237 (antibody, V domains shown)
VH: QVTLKESGPVLVKPTETLTLTCTVSGFSLSNARMGVSWIRQPPGKALEWLAHIFSHDEKFYSTFLKSRLTISKDTSKSQVVLMMTNMDPVDTATYYCARIILSSSGHDAFDIWGQGTMVTVSS
VL: AIQMTQSPSSLSASVGDRVTITCRASQDIRHNLGWYQQKPGKAPNLLIYAASSLQSGVPSRFSGSGSGTDFILTISSLQPEDFATFFCLQDYIYPLTFGGGTKVEIK
notes: also called CW6B237.001; CW6M237 (DNA ID)
For B1, the “IC50 (read off the curve)” value [1] was about 0.3 µg/mL and the binding result (A24_A*24:02 [2]) was “no binding (tested: 10 µg/ml)”.

B2: CW6B238 (antibody, V domains shown)
VH: B1 VH with S30N, I53M, H56S, S62R, F64S, M83T, I101S, S103Y, A109T, I112L
VL: B1 VL with H31N, N32T, I72T, F86Y, F87Y, I93D
notes: also called CW6B238.001; CW6M238 (DNA ID)
B2: no binding (tested: 10 µg/ml) (A24_A*24:02 [3]).

B3: CW6B175 (antibody, V domains shown)
VH: EVQLVESGGGLVQPGGSLRLSCAASGFTFTNYWMTWVRQAPGKGLEWVANIKQSGSEKYYVDSVKGRFTISRDNAKNSLYLQMNSLRAEDTAVYYCARTLYEWELEPFDYWGQGTLVTVSS
VL: SYVLTQPPSVSVAPGQTARITCGGNRIGSKSVHWYQQKPGQAPVLVVFDDSDRPSGIPERFSGSNSGITATLTISRVEAGDEADYYCQVWDSSNDHVVFGGGTKLTVL
notes: also called CW6B175.001; CW6M175 (DNA ID)
For B3, the binding result (A24_A*24:02 [4]) was “no binding (tested: 10 µg/ml)”, the Kd [5] was 0.0285 nM and the koff [5] was 0.000314 s⁻¹. For the same binder, the kon [5] was 1.05e+07 M⁻¹ s⁻¹, the Kd (CW6W32 (rhHLA-Cw6/TRAT) [6]) was 0.663 nM and the koff (CW6W32 (rhHLA-Cw6/TRAT) [6]) was 0.284 s⁻¹. For the same binder, the kon (CW6W32 (rhHLA-Cw6/TRAT) [6]) was 4.28e+08 M⁻¹ s⁻¹, the Kd [7] was 1.87 nM and the koff [7] was 0.0163 s⁻¹. The kon [7] was 8.73e+06 M⁻¹ s⁻¹, the Kd (CW6W54.001 [8]) was 0.128 nM and the koff (CW6W54.001 [8]) was 0.000842 s⁻¹. The kon (CW6W54.001 [8]) was 6.6e+06 M⁻¹ s⁻¹, the Kd (CW6W51.001 [9]) was 0.157 nM and the koff (CW6W51.001 [9]) was 0.000285 s⁻¹. It also gave a kon (CW6W51.001 [9]) of 1.82e+06 M⁻¹ s⁻¹, a Kd (CW6W35.001 [10]) of 0.12 nM and a koff (CW6W35.001 [10]) of 0.000126 s⁻¹. For the same binder, the kon (CW6W35.001 [10]) was 1.05e+06 M⁻¹ s⁻¹, the Kd (CW6W53.001 [11]) was 0.327 nM and the koff (CW6W53.001 [11]) was 0.00056 s⁻¹. It also gave a kon (CW6W53.001 [11]) of 1.72e+06 M⁻¹ s⁻¹, a Kd [12] of 0.0346 nM and a koff [12] of 0.000363 s⁻¹. The kon [12] was 1.1e+07 M⁻¹ s⁻¹.

B4: CW6B130 (antibody, V domains shown)
VH: QLQLQESGPGLVKPSETLSLTCTVSGASISSINYYWGWIRQPPGKGLEWIGSFYYSGNTYYNPSLKSRVTISVDTSKNYFSLKLNSVTAADTAVYYCAREYYDSSGYYPFEPWGQGTLVTVSS
VL: B3 VL with N25D, R26N, K30E, F48Y, S51T, N65K, I68T, R76W, N94S
notes: also called CW6B130.001; CW6M130 (DNA ID)
B4 gave a Kd (CW6W32 (rhHLA-Cw6/TRAT) [13]) of 0.27 nM, a koff (CW6W32 (rhHLA-Cw6/TRAT) [13]) of 0.00272 s⁻¹ and a kon (CW6W32 (rhHLA-Cw6/TRAT) [13]) of 1.03e+07 M⁻¹ s⁻¹. For the same binder, the binding result [14] was “binds”, the Kd [15] was 0.0586 nM and the koff [15] was 0.00124 s⁻¹. For the same binder, the kon [15] was 1.66e+07 M⁻¹ s⁻¹, the binding result (A24_A*24:02 [16]) was “no binding (tested: 10 µg/ml)” and the Kd (CW6W32 (rhHLA-Cw6/TRAT) [6]) was 0.622 nM. The koff (CW6W32 (rhHLA-Cw6/TRAT) [6]) was 0.00509 s⁻¹, the kon (CW6W32 (rhHLA-Cw6/TRAT) [6]) was 8.2e+06 M⁻¹ s⁻¹ and the Kd (CW6W54.001 [17]) was 0.0828 nM. It also gave a koff (CW6W54.001 [17]) of 0.00204 s⁻¹, a kon (CW6W54.001 [17]) of 2.47e+07 M⁻¹ s⁻¹ and a Kd (CW6W51.001 [18]) of 0.571 nM. The koff (CW6W51.001 [18]) was 0.000389 s⁻¹, the kon (CW6W51.001 [18]) was 681000 M⁻¹ s⁻¹ and the Kd (CW6W35.001 [19]) was 6.04 nM. It also gave a koff (CW6W35.001 [19]) of 0.0101 s⁻¹, a kon (CW6W35.001 [19]) of 1.67e+06 M⁻¹ s⁻¹ and a Kd (CW6W53.001 [20]) of 0.205 nM. The koff (CW6W53.001 [20]) was 0.0054 s⁻¹, the kon (CW6W53.001 [20]) was 2.63e+07 M⁻¹ s⁻¹ and the Kd [7] was 0.272 nM. The koff [7] was 0.00184 s⁻¹, the kon [7] was 6.77e+06 M⁻¹ s⁻¹ and the Kd [21] was 0.0713 nM. It also gave a koff [21] of 0.00097 s⁻¹ and a kon [21] of 1.75e+07 M⁻¹ s⁻¹.

B5: CW6B188 (antibody, V domains shown)
VH: B3 VH with S56N
VL: B3 VL with S31N, V32L, F48Y, I68S, N94R
notes: also called CW6B188.001; CW6M188 (DNA ID)
Work on B5 yielded a Kd [22] of 0.12 nM, a koff [22] of 0.000574 s⁻¹ and a kon [22] of 5.66e+06 M⁻¹ s⁻¹. B5: binds [23]; binds (CW6W32 (rhHLA-Cw6/TRAT) [24]); no binding (tested: 10 µg/ml) (A24_A*24:02 [25]).
